From the domain aggregation screens of Martell et al. (2025)

Experiment: soluble fraction after stress (log2 fold change); higher = more stays soluble; pooled small domains, quantitative proteomics
Details: stress: 75 degC
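Note: 20 min heating vs room temperature control held 20 min.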

Sequence	soluble fraction (log2)
HMRNMRKLWIARINAAARMNDISYSKLMHGLKLANVEINRKMLSEMAIDDPKSFTALVETAKKALNG	-1.49
HMRNPLYAQVADYVMQQIAAGTYRPHQAIPTEWQLAKKLEVSQGTVRKGLDELVFKQILYRQQGVGTFVAD	-1.31
HMRPAAELGLPHAPKHFIQYLTEDDRPQVLKDVDYEGGMGVSIGRLREDSIFDWKFVGLAHNTL	0.0714
HMRPADTAAMLKYLSSGAVKGIGGALAGRIIEAFGDESIKVIEEDPARLATVKGITLKKAKEISEEMQRVN	-0.0169
HMRPEFVVALSGADLGKLHRLYELGEVLSREDDAEGVTHAVLRVPDKHEHAFHAEFPQARPM	0.879
HMRPIDEVFGFFSRPENLTVITPSNLHFNILTPRPLEMKQGAVIDYTIKIFKVPIHWRTLITTYDPPFKFV	0.059
HMRPILTLEEAKAKALAHAGLKADQVTFTEAKLDWDDGKQVYDIEFYTADFKEYDYEIDAKTGEVLEVDY	-0.466
HMRPKAIFVDVDDTLVRSVGQTRIPMPAVIAHIRRLHDAGHQLYLWSSGGADYARASAEELGIGQYFQAFL	-0.268
HMRPRWTEQEVERAKAIKMIYPNAYRLESSDVFVQVWSKEEILLAHVEVDMFPSLRPGQPVELDEIIG	-1.19
HMRPTAWDQISDWLDRHGSIANADVVRIAGLDTLKASKLLTTWREQGLLEPLPGRGKRNMAYVRAI	-0.887
HMRPTVNETQIREVFRSILGREVDPEGLRHYLGQAAKGWSIDQIRADVNNSQEAHQRRAELARQAEELK	-0.0425
HMRQDEKTLLYWIAGHLKREGRQITERSARHLVEQVGTDMENLSREMEKLIAYTMGRTEITGQDIDDI	-1.77
HMRQEIIEDSRKLLEESLKRYDLTYQEFIDTLKSKNMNVESTLINIIKNQSSLDLVLRNLGLIAP	-0.0293
HMRQISDPTALASMVDKVIEDNPSAVADYRRGESKALGFLIGRVMQSSGGKANPKMIRGLLVKNLES	-0.284
HMRQMIIIMQKQAAASSVAAVVEFIRSKGLREHISPGAERTIIGAVGDERVFLPQELESLPQVERAIRVL	-3.67
HMRQPAAVEYSTFLDWVHASQVERVVFEGDTIRGVRVTGEGFVTYSPETDNTALIGELKKSRVQISATAP	-0.508
HMRQQAFWALVPEERDVLDETGAPLFRIGPTAWALVIEDRGEVFVVRDEDGRVGYLHEVDGVTR	-1.57
HMRQQLAEILQKAVDNLPEAQRLVWLLRDKSDMTFKEIAEDLQLTEANVRVLLHRARLKLLAVINQYEE	-1.66
HMRQYKEMPYRLFLIHLGKGLVDEVELSDKAKLTGKLKNGKIFITDNPRTENFKEQLLLHDVKVKEG	-0.329

Sequence	soluble fraction (log2)
HMRQYTPEQLETAVLVLEEVRQGRRLDRALRSHPMPDGRLIAKHVLVAAYRKLVAEGTWKEDPEFLSRIRM	-2
HMRRADRLLQLIQILRRHRRPVTGDVMARELEVSLRTVYRDIATLTIEGVPIRGEAGVGYVLGEGY	-2.41
HMRRDEDLAHGRELLEKELRKQGLEVSENLKQDKLLEGAKRLGFLEAEDLVVAVGSGKVSAGMAVGRIIG	-0.114
HMRREKVLIKLAENLASKVLRTKKSIELEPMTPYERKVIHTTIENISGVKSWSEGENLQRHLIVALDE	-1.5
HMRRGPLTPDDFVLDMRVVHPRYGVGRIVALSGSGESRKATVDFGGSIGRMKFVLSQSPLKP	-1.34
HMRRHLLEMNDAIGRLGRLISEDPADRDVAEVIWAALRGMVMGQMIMNEPIDWQRERRTLVEMAIGR	0.0485
HMRRIADVVPEQLTREEAEELLETLAEQGEIHEEQALLARYILEQSLQGVAPEVEPLIRAKLLAGILMVY	-2.18
HMRRKDIEFTNTMLEELYRHNSKWYDAVVRAYALEIPQKQIAEEMGIRLEAFQSMLFRAKKWIKTKYEADY	-2.83
HMRRNLSGEDTIVNRMAQWQYTQEQKNELHKMMDAGMPQEDILSVFYPEIKAEEMHRFLLAFQTAHNSG	-0.344
HMRRPRGVFNLVPRGFKRFGFITPDGGGEDMFAHLENVRAGHVVEDRNAVEYGIGRGPDGRDQAVDIVPVP	-0.0889
HMRRPTYPTVTTEAGMVVEDRSSGFVGDIVRWSFEGVTLRDRQQQLRHFTWKPGGFLINGTPVTLKRPE	-0.733
HMRRRVIGTLVMGDMSTDFKVLADGHTHRVLAAAISFHKAKPGDEVVILVPKSAPSKWAAVEHVMK	0.033
HMRSAKLPYSEFLKLVDTDKVNDVSIVGRTISGHLDDGSKFSTYTPPNDPNIIEKLSSHNVIINSAPE	0.0959
HMRSASFDIMSQKQSDATLGYERVYDTETNEVYKAYNGFTDDYDGERYKSISDNMYTKGISGYIEK	0.39
HMRSDSEIKEDVLDELMWQPNIDETQIGVIVEKGVVTLTGFVDAYAKKTAALDAVKNVKGVKAVANDIEV	0.131
HMRSFGRLRRRDSGRWEAAYVGPDARLYRAPATFEAKDDAIAWLSAERRMIELDTWIKPHDRASR	-1.78
HMRSGFAFSEEEIKHLDNIVSPLLIKGQSIHHISIFHKDEVMMSERTLYSYVNNGLFSARNIDMPRTVRMR	0.476
HMRSISVEMDGKEYLIPTVSENGKVLSDDDAVKQFKKTGKHLDVFDSPEDATAYARQLHEDQESFYA	0.231
HMRSKTDLVYEEIKKLILRGELSSDTPISENHLARRFEISRTPIREALKRLHIEGFVRIIPNHGVFVR	-2.15
